Assay results as given in publication PMC7954794, “Protein context shapes the specificity of SH3 domain-mediated interactions in vivo” (Nature Communications, 2021).

System: Abp1 PPIs
Assay: DHFR-PCA of Abp1 SH3-swapped baits (Fig. 2B-D, S2C, S2F);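 as to Protein-protein interaction distance between Abp1 SH3-swapped baits, to ABP1: Euclidean distance between DHFR-PCA score profiles of the baits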;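 as to Protein-protein interaction distance between Abp1 SH3-swapped baits, to BEM1-2: Euclidean distance between DHFR-PCA score profiles of the baits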;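 as to Protein-protein interaction distance between Abp1 SH3-swapped baits, to BOI1: Euclidean distance between DHFR-PCA score profiles of the baits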;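 as to Protein-protein interaction distance between Abp1 SH3-swapped baits, to BZZ1-1: Euclidean distance between DHFR-PCA score profiles of the baits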
Type: cell-based, Saccharomyces cerevisiae
Method in brief: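 Interactions were scored by DHFR protein-fragment complementation. DHFR F[1,2]-tagged Abp1 strains, whose SH3 was swapped for yeast or human ortholog domains, were crossed on YPD at 30 °C for 48 h with a 1536-format array of 575 prey-DHFR F[3] strains and 40 negatives, giving four replicates per pair. PCA selection lasted 4 days after double diploid selection.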

[1] = number of PPIs, difference, Abp1 SH3-swapped with the listed SH3, Fig2D,S2F

B1: MYO3 (protein, UniProt P36006 1-1272, looked up)
Myosin-3: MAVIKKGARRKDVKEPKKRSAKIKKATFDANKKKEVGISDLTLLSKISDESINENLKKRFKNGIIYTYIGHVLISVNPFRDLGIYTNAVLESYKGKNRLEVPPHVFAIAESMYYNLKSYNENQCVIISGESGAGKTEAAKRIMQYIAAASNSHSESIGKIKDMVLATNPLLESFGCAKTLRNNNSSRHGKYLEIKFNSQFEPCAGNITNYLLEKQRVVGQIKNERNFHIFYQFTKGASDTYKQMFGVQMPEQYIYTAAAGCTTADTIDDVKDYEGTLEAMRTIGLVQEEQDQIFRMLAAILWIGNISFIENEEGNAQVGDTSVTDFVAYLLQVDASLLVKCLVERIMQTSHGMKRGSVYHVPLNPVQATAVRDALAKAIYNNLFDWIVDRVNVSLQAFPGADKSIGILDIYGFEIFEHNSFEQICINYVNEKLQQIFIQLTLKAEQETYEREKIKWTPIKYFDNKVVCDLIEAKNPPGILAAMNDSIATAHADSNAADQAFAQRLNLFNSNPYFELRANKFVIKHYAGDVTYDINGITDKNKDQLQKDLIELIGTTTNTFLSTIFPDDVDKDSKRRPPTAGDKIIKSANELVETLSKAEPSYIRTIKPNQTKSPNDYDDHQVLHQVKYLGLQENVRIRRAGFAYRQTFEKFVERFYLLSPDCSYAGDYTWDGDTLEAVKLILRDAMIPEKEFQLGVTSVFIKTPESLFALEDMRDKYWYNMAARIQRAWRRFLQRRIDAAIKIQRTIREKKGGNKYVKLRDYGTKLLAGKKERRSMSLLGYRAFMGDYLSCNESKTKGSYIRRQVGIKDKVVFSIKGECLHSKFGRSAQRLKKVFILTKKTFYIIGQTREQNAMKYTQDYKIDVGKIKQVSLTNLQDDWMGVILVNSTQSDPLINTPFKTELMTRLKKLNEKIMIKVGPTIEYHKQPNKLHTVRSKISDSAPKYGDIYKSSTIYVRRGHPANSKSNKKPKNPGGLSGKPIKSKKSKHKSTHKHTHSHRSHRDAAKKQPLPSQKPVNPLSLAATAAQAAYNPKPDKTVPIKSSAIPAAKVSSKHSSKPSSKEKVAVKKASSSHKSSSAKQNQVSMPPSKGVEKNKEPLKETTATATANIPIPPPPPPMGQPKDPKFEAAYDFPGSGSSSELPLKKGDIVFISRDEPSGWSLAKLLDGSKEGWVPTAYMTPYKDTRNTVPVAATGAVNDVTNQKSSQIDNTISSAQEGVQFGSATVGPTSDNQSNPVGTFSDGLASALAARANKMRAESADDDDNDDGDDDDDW
- Protein-protein interaction distance between Abp1 SH3-swapped baits, to ABP1 (Abp1 bait with swapped SH3, distance to bait with ABP1 SH3, sheet Fig2C): 12.85
- Protein-protein interaction distance between Abp1 SH3-swapped baits, to BBC1 (distance to Abp1 bait with BBC1 SH3, sheet Fig2C): 13.06
- Protein-protein interaction distance between Abp1 SH3-swapped baits, to BEM1-1 (distance to Abp1 bait with BEM1-1 SH3, sheet Fig2C): 17.48
- Protein-protein interaction distance between Abp1 SH3-swapped baits, to BEM1-2 (distance to Abp1 bait with BEM1-2 SH3, sheet Fig2C): 35.25
- Protein-protein interaction distance between Abp1 SH3-swapped baits, to BOI1 (distance to Abp1 bait with BOI1 SH3, sheet Fig2C): 14.63
- Protein-protein interaction distance between Abp1 SH3-swapped baits, to BOI2 (distance to Abp1 bait with BOI2 SH3, sheet Fig2C): 17.97
- Protein-protein interaction distance between Abp1 SH3-swapped baits, to BUD14 (distance to Abp1 bait with BUD14 SH3, sheet Fig2C): 20.78
- Protein-protein interaction distance between Abp1 SH3-swapped baits, to BZZ1-1 (distance to Abp1 bait with BZZ1-1 SH3, sheet Fig2C): 10.1
- Protein-protein interaction distance between Abp1 SH3-swapped baits, to BZZ1-2 (distance to Abp1 bait with BZZ1-2 SH3, sheet Fig2C): 14.12
- Protein-protein interaction distance between Abp1 SH3-swapped baits, to CDC25 (distance to Abp1 bait with CDC25 SH3, sheet Fig2C): 29.41
- Protein-protein interaction distance between Abp1 SH3-swapped baits, to CTTN (distance to Abp1 bait with CTTN SH3, sheet Fig2C): 15.21
- Protein-protein interaction distance between Abp1 SH3-swapped baits, to CYK3 (distance to Abp1 bait with CYK3 SH3, sheet Fig2C): 30.11
- Protein-protein interaction distance between Abp1 SH3-swapped baits, to DBNL (distance to Abp1 bait with DBNL SH3, sheet Fig2C): 10.74
- Protein-protein interaction distance between Abp1 SH3-swapped baits, to FUS1 (distance to Abp1 bait with FUS1 SH3, sheet Fig2C): 21.97
- Protein-protein interaction distance between Abp1 SH3-swapped baits, to HCLS1 (distance to Abp1 bait with HCLS1 SH3, sheet Fig2C): 11.19
- Protein-protein interaction distance between Abp1 SH3-swapped baits, to HOF1 (distance to Abp1 bait with HOF1 SH3, sheet Fig2C): 33.94
- Protein-protein interaction distance between Abp1 SH3-swapped baits, to HSE1 (distance to Abp1 bait with HSE1 SH3, sheet Fig2C): 11.17
- Protein-protein interaction distance between Abp1 SH3-swapped baits, to LSB1 (distance to Abp1 bait with LSB1 SH3, sheet Fig2C): 9.135
- Protein-protein interaction distance between Abp1 SH3-swapped baits, to LSB3 (distance to Abp1 bait with LSB3 SH3, sheet Fig2C): 9.625
- Protein-protein interaction distance between Abp1 SH3-swapped baits, to MYO3 (distance to Abp1 bait with MYO3 SH3, sheet Fig2C): 0.00
- Protein-protein interaction distance between Abp1 SH3-swapped baits, to MYO5 (distance to Abp1 bait with MYO5 SH3, sheet Fig2C): 5.861
- Protein-protein interaction distance between Abp1 SH3-swapped baits, to NBP2 (distance to Abp1 bait with NBP2 SH3, sheet Fig2C): 19.88
- Protein-protein interaction distance between Abp1 SH3-swapped baits, to PEX13 (distance to Abp1 bait with PEX13 SH3, sheet Fig2C): 8.874
- Protein-protein interaction distance between Abp1 SH3-swapped baits, to PIN3 (distance to Abp1 bait with PIN3 SH3, sheet Fig2C): 8.374
- Protein-protein interaction distance between Abp1 SH3-swapped baits, to RVS167 (distance to Abp1 bait with RVS167 SH3, sheet Fig2C): 9.049
- Protein-protein interaction distance between Abp1 SH3-swapped baits, to SDC25 (distance to Abp1 bait with SDC25 SH3, sheet Fig2C): 35.91
- Protein-protein interaction distance between Abp1 SH3-swapped baits, to SHO1 (distance to Abp1 bait with SHO1 SH3, sheet Fig2C): 10.66
- Protein-protein interaction distance between Abp1 SH3-swapped baits, to SLA1-1 (distance to Abp1 bait with SLA1-1 SH3, sheet Fig2C): 31.98
- Protein-protein interaction distance between Abp1 SH3-swapped baits, to SLA1-2 (distance to Abp1 bait with SLA1-2 SH3, sheet Fig2C): 22.64
- Protein-protein interaction distance between Abp1 SH3-swapped baits, to SLA1-3 (distance to Abp1 bait with SLA1-3 SH3, sheet Fig2C): 9.056
- Protein-protein interaction distance between Abp1 SH3-swapped baits, to YSC84 (distance to Abp1 bait with YSC84 SH3, sheet Fig2C): 9.995
- PPIs gained by Abp1 - SH3-dependent PPIs gained by Abp1 [1]: 24
- SH3-dependent PPIs - SH3-dependent PPIs gained by Abp1 [1]: 13
- SH3-dependent PPIs gained by Abp1 (number of PPIs, Abp1 SH3-swapped with the listed SH3, DHFR-PCA, Fig2D,S2F): 4
